In test [1] the target is T1, recombinant human PCSK9 protein, His-tagged (Immunogen A, hPCSK9-His) (human, UniProt Q8NBP7 31-692, limits assumed, biotin-labelled in the ELISA and blocking assays (Biotin labeling kit)).
T1 construct: also called human PCSK9-His; recombinant hPCSK9-His; not shown: His tag
The test can be described thus: ELISA, biotin-hPCSK9-His on streptavidin plate; antibody 0.67 nM.

The target in test [2] is T2, recombinant cyno monkey PCSK9 protein (cyno monkey, UniProt A8T666 31-692 (rhesus entry), limits assumed, biotin-labelled in the ELISA (Biotin labeling kit)).
T2 construct: also called cyno PCSK9; Cyno Monkey PCSK9-His
The test can be described thus: ELISA, biotin-cyno PCSK9 on streptavidin plate; antibody 0.0067 nM.
Description: (§1) The next day, the plates were washed twice with wash buffer [0.01% (v/v) Tween 20], then blocked with blocking buffer [0.01% (v/v) 0.1% BSA (w/w) Tween 20] at room temperature for 2 hours. […] Unbound PCSK9 proteins were removed by washing the plate three times with wash buffer [0.01% (v/v) Tween 20]. […] The plates were washed twice with wash buffer [0.01% (v/v) Tween 20], and 200 uL HRP-conjugated secondary antibody (Sigma) was added to each well and incubated for 2 hours at 37° C. After the plates were washed three times with wash buffer, 100 ul TMB substrate were added to each well and incubated for 30 minutes at room temperature. 100 ul stop solution (0.1N HCl) were added to each well to stop the reaction.

Test [3] concerns the target T1, recombinant human PCSK9 protein, …. The test can be described thus: ELISA, biotin-hPCSK9-His on streptavidin plate; antibody 0 nM (blank).
Description: as §1
Test [4] has the same target. As to the kind of experiment: ELISA, biotin-hPCSK9-His on streptavidin plate; antibody 0.00067 nM.
Description: as §1
Test [5] shares this target. As to the kind of experiment: blocking ELISA, biotin-hPCSK9-His on coated LDLR ECD-His; antibody 8 nM.
Description: (§2) Purified LDLR^ECD-His was diluted with PBS to a final concentration of 1.0 ug/ml, and 100 uL of diluted LDLR^ECD-His were added to each well of 96-well plate that was then sealed with plastic film and incubated at 4° C. overnight. The plate was washed twice with wash buffer [PBS+0.01% (v/v) Tween 20] and incubated with blocking buffer [PBS+0.01% (v/v) BSA+1% Tween20 (w/w)] at room temperature for 2 hours. […] The plate was washed three times with wash buffer [0.01% (v/v) Tween 20]. 100 uL HRP-conjugated streptavidin (Sigma) were then added to each well and incubated at 37° C. for 1 hour. The plate was then washed three times with wash buffer, and 100 uL TMB substrate were added to each well. After 15 minutes of incubation at room temperature, the reaction was stopped by adding 50 uL stop solution (0.1N HCl).
Test [6] has the same target. The test can be described thus: blocking ELISA, biotin-hPCSK9-His on coated LDLR ECD-His; antibody 200 nM.
Description: as §2
Test [7] has the same target. As to the kind of experiment: blocking ELISA, biotin-hPCSK9-His on coated LDLR ECD-His; antibody 1.6 nM.
Description: as §2
Test [8] shares this target. As to the kind of experiment: ELISA, biotin-hPCSK9-His on streptavidin plate; antibody 0.000067 nM.
Description: as §1
Test [9] shares this target. As to the kind of experiment: blocking ELISA, biotin-hPCSK9-His on coated LDLR ECD-His; antibody 0.06 nM.
Description: as §2
Test [10] shares this target. The test can be described thus: ELISA, biotin-hPCSK9-His on streptavidin plate; antibody 0.067 nM.
Description: as §1
The target is the same in test [11]. The test can be described thus: blocking ELISA, biotin-hPCSK9-His on coated LDLR ECD-His; antibody 0.32 nM.
Description: as §2
The target is the same in test [12]. As to the kind of experiment: blocking ELISA, biotin-hPCSK9-His on coated LDLR ECD-His; antibody 0.01 nM.
Description: as §2
Test [13] concerns the target T2, recombinant cyno monkey PCSK9 protein. As to the kind of experiment: ELISA, biotin-cyno PCSK9 on streptavidin plate; antibody 66.67 nM.
Description: as §1
The target is the same in test [14]. The test can be described thus: ELISA, biotin-cyno PCSK9 on streptavidin plate; antibody 0.67 nM.
Description: as §1
Test [15] addresses T1, recombinant human PCSK9 protein, …. The test can be described thus: ELISA, biotin-hPCSK9-His on streptavidin plate; antibody 6.67 nM.
Description: as §1
The target in test [16] is T2, recombinant cyno monkey PCSK9 protein. As to the kind of experiment: ELISA, biotin-cyno PCSK9 on streptavidin plate; antibody 0.00067 nM.
Description: as §1
In test [17] the target is T1, recombinant human PCSK9 protein, …. The test can be described thus: ELISA, biotin-hPCSK9-His on streptavidin plate; antibody 66.67 nM.
Description: as §1
In test [18] the target is T2, recombinant cyno monkey PCSK9 protein. As to the kind of experiment: ELISA, biotin-cyno PCSK9 on streptavidin plate; antibody 6.67 nM.
Description: as §1
In test [19] the target is T1, recombinant human PCSK9 protein, …. As to the kind of experiment: ELISA, biotin-hPCSK9-His on streptavidin plate; antibody 0.0067 nM.
Description: as §1
The target of test [20] is T2, recombinant cyno monkey PCSK9 protein. As to the kind of experiment: ELISA, biotin-cyno PCSK9 on streptavidin plate; antibody 0.067 nM.
Description: as §1
The target of test [21] is T1, recombinant human PCSK9 protein, …. The test can be described thus: blocking ELISA, biotin-hPCSK9-His on coated LDLR ECD-His; antibody 40 nM.
Description: as §2
Test [22] concerns the target T2, recombinant cyno monkey PCSK9 protein. As to the kind of experiment: ELISA, biotin-cyno PCSK9 on streptavidin plate; antibody 0 nM (blank).
Description: as §1

T2 sequence (A8T666 31-692 limits assumed): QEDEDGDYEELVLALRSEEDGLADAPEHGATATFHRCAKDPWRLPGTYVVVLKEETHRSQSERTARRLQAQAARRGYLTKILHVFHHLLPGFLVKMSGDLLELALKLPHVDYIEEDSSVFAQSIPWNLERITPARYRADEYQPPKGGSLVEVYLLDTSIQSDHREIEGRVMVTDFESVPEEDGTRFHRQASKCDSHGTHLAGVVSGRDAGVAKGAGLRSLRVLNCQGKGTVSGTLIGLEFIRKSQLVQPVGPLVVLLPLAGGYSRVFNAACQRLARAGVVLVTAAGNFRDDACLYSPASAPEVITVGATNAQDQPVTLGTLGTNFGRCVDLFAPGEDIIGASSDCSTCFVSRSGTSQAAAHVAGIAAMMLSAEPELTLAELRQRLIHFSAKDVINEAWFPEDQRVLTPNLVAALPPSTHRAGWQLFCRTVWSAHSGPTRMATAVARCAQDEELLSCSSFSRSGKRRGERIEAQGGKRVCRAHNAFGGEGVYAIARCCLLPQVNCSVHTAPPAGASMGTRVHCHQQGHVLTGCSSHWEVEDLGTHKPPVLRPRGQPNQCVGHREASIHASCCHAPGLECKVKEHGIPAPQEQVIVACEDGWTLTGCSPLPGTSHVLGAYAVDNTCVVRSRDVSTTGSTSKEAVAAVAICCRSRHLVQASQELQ

B1: 96F8C6, chimeric anti-PCSK9 mAb purified from hybridoma (antibody, V domains shown)
VH: EVQLVESGGGLVQPGGSLRLSCAASGITFSSYWMSWVRQAPGKGLEWVANIKQDGSEKYYVDSVKGRFTISRDIAKNSLYLQMNSLRAEDTAVYYCARDRGTYYYGSGSYNYYYYGMDVWGQGTTVTVSS
VL: not shown
notes: From Harbour H2L2 mice: human variable regions, rat constant regions
In the case of B1, the OD450 nm in [1] is 2.73 OD450 nm; in test [2] it was 0.25 OD450 nm; in [3], 0.2 OD450 nm; in [4], 0.18 OD450 nm; in [8], 0.17 OD450 nm; in test [10], 1 OD450 nm. In addition, the OD450 nm in test [13] was found to be 2.87 OD450 nm; in [14], 2.26 OD450 nm; in test [15], 2.89 OD450 nm; in [16], 0.23 OD450 nm; in test [17], 2.86 OD450 nm; in test [18], 2.58 OD450 nm. Besides, the OD450 nm was 0.3 OD450 nm in test [19], 0.77 OD450 nm in [20] and 0.25 OD450 nm in test [22]. The “OD450 nm (PCSK9 bound to LDLR)” value was found to be 0.53 OD450 nm in [5]; 0.63 OD450 nm in test [6]; 0.97 OD450 nm in test [7]; 1.25 OD450 nm in test [9]; 1.16 OD450 nm in test [11]; 1.19 OD450 nm in test [12]. Moreover, the “OD450 nm (PCSK9 bound to LDLR)” value in test [21] turned out to be 0.45 OD450 nm.

B2: 103C11E8, chimeric anti-PCSK9 mAb purified from hybridoma (antibody, V domains shown)
VH: QVQLQESGPGLVKPSGTLSLTCAVSGGSISSSNWWSWVRQPPGKGLEWIGEIYHSGSTNYNPSLKSRVTISVDKSKNQFSLKLSSVTAADTAVYYCARGIAVAGTDVMDAWGQGASVTVSS
VL: EIVLTQSPATLSLSPGERATLSCRASQSVSSYLVWYQQKSGQAPRLLIYGTSNRATGIPARFSGSGSGTDFTLTISSLEPEDFALYYCQQRGNWMYTFGQGTKLEIK
notes: as for B1
With B2, the OD450 nm in [1] worked out at 2.41 OD450 nm; in [3], 0.14 OD450 nm; in test [4] it was 0.15 OD450 nm; in test [8], 0.11 OD450 nm; in [10], 0.68 OD450 nm; in test [15], 2.71 OD450 nm. The OD450 nm was determined as 2.72 OD450 nm in test [17] and 0.21 OD450 nm in test [19]. Besides, the “OD450 nm (PCSK9 bound to LDLR)” value turned out to be 0.87 OD450 nm in [5]; 0.54 OD450 nm in [6]; 0.96 OD450 nm in [9]; 0.92 OD450 nm in test [11]; 0.97 OD450 nm in [12]; 0.77 OD450 nm in test [21].

The record behind these values is patent US20180355059A1 (PHARMAEXPLORER, published 2018).
